Results on one molecule are retold here after patent US20160207975A1 (published 2016).

The test concerns the target CGRP receptor (CALCRL:RAMP1) on CALCRL:RAMP1-CRE-bla Freestyle 293F cells (UniProt Q16602 23-461; O60894 27-148, limits assumed). The experiment in a line: cell-based or functional assay.

Chain of CGRP receptor (CALCRL:RAMP1) on CALCRL:RAMP1-CRE-bla Freestyle 293F cells (Q16602 23-461 limits assumed, chain 1 of 2): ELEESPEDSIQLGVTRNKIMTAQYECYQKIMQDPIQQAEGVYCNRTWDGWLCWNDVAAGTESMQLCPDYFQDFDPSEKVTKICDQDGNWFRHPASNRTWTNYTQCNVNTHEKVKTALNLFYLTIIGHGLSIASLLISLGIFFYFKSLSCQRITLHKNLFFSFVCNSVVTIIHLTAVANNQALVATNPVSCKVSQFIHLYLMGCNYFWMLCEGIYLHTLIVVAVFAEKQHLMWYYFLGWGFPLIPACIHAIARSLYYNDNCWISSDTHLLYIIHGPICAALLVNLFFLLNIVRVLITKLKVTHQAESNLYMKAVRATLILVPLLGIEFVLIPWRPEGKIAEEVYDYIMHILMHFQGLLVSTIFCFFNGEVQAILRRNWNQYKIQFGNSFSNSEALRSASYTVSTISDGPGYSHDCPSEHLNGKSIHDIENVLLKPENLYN
Chain of CGRP receptor (CALCRL:RAMP1) on CALCRL:RAMP1-CRE-bla Freestyle 293F cells (O60894 27-148 limits assumed, chain 2 of 2): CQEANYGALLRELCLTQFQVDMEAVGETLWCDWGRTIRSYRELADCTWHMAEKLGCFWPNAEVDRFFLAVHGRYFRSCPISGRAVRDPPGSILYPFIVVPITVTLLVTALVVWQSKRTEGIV

For H-ACDTATCVLGRLSQELHRLQTYPRTNVGSKAF-NH2 (ends and bridges not checked) [ACX017 (SEQ ID NO:1)], the “percent activation of the CGRP receptor (CALCRL:RAMP1-CRE-bla Freestyle 293F agonist screen), EC50” value was roughly 105 nM.
